Patent US20200368361A1 (Regeneron, published 2020)
Where a chain is given by its changes, count along the chain named. In names and notes the source's numbering stands.

T1: human MSR1 with a C-terminal Myc tag expressed on HEK293.Myc.hMSR1 cells (human, UniProt P21757 1-451)
T1 sequence (looked up): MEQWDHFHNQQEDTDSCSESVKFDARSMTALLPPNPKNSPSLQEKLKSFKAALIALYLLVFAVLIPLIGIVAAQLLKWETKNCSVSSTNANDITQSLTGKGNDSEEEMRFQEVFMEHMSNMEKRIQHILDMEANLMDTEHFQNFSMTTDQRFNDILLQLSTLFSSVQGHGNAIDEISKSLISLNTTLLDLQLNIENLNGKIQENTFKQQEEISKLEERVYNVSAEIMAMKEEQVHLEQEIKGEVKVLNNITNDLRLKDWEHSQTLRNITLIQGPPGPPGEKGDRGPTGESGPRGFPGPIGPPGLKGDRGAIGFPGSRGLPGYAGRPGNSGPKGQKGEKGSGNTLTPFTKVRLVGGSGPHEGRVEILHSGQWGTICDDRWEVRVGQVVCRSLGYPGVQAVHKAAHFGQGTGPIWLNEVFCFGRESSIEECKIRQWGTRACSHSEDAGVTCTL

B1: H1H27756P-N297Q (antibody, V domains shown)
VH: QVQLVESGGGVVQPGRSLRLSCAASGFTFSNYDMHWVRQAPGKGLEWMAVISYDGINKYYADSVKGRFTISRDNSKNTLYLQMNSLRAEDTAVYYCAKGTYSWYFDLWGRGTLVTVSS
VL: not shown
B2: H2bM21234N (antibody, V domains shown)
VH: QVQLQESGPGLVKPSETLSLTCTVTGGSISRNYWSWIRQPPGKGLEWIGYIYYSGSIDYNPSLKSRVTISVDTSKNQFSLKLSSMTAADTAVYYCARDRWNWKYGMDVWGQGTTVIVSS
VL: EIVLTQSPGTLSLSPGERATLSCRASQTVRNNYLAWYHQKPGQAPRLLIYGASSRATGIPDRFSGSGSGTDFTLTISRLEPEDFTVYYCHQYGNSPWTFGQGTKMEIKR
B3: H1H21234N-N297Q (antibody, V domains shown)
VH: B2 VH
VL: B2 VL
B4: H2aM25695N (antibody, V domains shown)
VH: B2 VH with D58N, T73M, S83N, M85V
VL: B2 VL with N32S, T85A, H90Q, N94S, P96Y
B5: H1H27734P-N297Q (antibody, V domains shown)
VH: EVQLVESRGGLVQPGGSLRLSCAASGFTFSSYAMSWVRQAPGKGLEWVSAISGSGGSTFYADSVKGRFTISRDNSKNTVYLQMNSLRAEDTAVYYCAKALVLRFLEWLGDYWGQGTLVTVSS
VL: DIQMTQSPSTLSASVGDRVTITCRASQSISSWLAWFQQKPGKAPKLLIYKASSLESGVPSRFSGSGSGTEFTLTISSLQPDDFATYYCQQYKSYWTFGQGTKVEIKR
B6: H1H27739P-N297Q (antibody, V domains shown)
VH: EVQLVESGGGLVQPGGSLRLSCTASGFTFSSYAMSWVRQAPGKGLEWVSAISGTGSSTYFTDSVKGRFAISRDNSKNTLYLQMNSLRAEDTAVYYCAKDGEWLSTVTLFDYWGQGTLVTVSS
VL: EIVMTQSPATLSVSPGERATLSCRASQSVSSNLAWYQQKPGQAPRLLIYGASTRATGIPARFSGSGSGTDFTLTISSLQSEDFALYYCQQYFIWPPHPTFGPGTKVDIKR
B7: H1H27747P-N297Q (antibody, V domains shown)
VH: QVQLVESGGAVVQPGRSLRLSCAASGFTFSYYGMHWVRQAPGKGLEWVAVISYDGSKKYYADSVKGRFTISRDNSKNTLYLQMNSLRAEDTAVYYCAKDLTVDFYYGMDVWGQGTTVTVSS
VL: DIQMTQSPSSVSASVGDRVTITCRASQGISSWLAWYQQKPGKAPKLLIYATSSLQSGAPSRFSGSGSGTDFTLTISSLQPEDFATYFCQQANSFPYTFGQGTKLEIKR
B8: H1H27754P-N297Q (antibody, V domains shown)
VH: EVQLVESGGGLVQPGGSLRLSCAASGFTFRTYAMTWVRQAPGKGLDWVSAITGDGGNTYYADSVKGRFTISRDNSKNTLYLQMNSLRAEDTAIYYCAKDQRFSFALYYFDYWGQGTLVTVSS
VL: B7 VL with K42N, T51A, S52F, A58V, F87Y, S93N, Y96W, L104V
B9: H1H27766P2-N297Q (antibody, V domains shown)
VH: EVQLVESGGGLVQPGGSLRLSCAASGFTFSSFAMSWVRQAPGKELEWVSSISGRGGSTYYADSVRGRFTISRDNSKITLYLQMNSLRAEDTAVYYCAKDIVFRYTSSAYWYFDLWGRGTLVTVSS
VL: not shown
B10: H1M21231N (antibody, V domains shown)
VH: EVQLVESGGGLVQPGGSLRLSCAASGFTFSDHYMDWVRQAPGKGLEWVGRTRNKANSHTTEYTASVTGRFTISRDDSRNSLYLQMNSLKTEDTAVYYCVRAGIIGTLFDYWGQGTLVTVSS
VL: DIQMTQFPSSLSASVGDRVTITCRASQSISSFLNWFQQKPGKAPKFLIYAASSLQSGVPSRFSGSGSGTDFTLTISSLQPEDFATYYCQQSYSSPPITFGQGTRLEIKR
B11: H2aM21227N (antibody, V domains shown)
VH: QVQLVQSGAEVKKPGASVKVSCKVSGYTLTELSIHWVRQVPGKGLEWMGGFDPEEGETIFAQEFRDRVTLTEDTSPDTAYMELSSLKSEDAAVYYCTTPRYCNNGICYDYWGQGTLVTVSS
VL: B10 VL with F7S, S31N, F32Y, F36Y, F46L, A50T, P80T, S94N, P95F
B12: H2aM21235N (antibody, V domains shown)
VH: B10 VH with H58Y, T63A, T67S, R78K, V99T
VL: B10 VL with F7S, S28I, S30G, S31R, F32Y, A43V, F46L, S56R, S93N, S94T
B13: H2aM25700N (antibody, V domains shown)
VH: QVQLVQSGSEVKKPGASVKVSCKVSGYTLTELSIHWVRQAPGKGLEWMGGFDPEDGETIYAQKFRGRVTMTEDISPDTAYMELSSLRSEDTAVYYCATPRYCNNGICYDYWGQGTLVTVSS
VL: B10 VL with F7S, V15I, F32Y, F36Y, K45M, F46L, P80T, S94T
B14: H1H27759P2-N297Q (antibody, V domains shown)
VH: EVQLVESGGGFVQPGGSLRLSCAASGFTFSSYAMSWVRQAPGKGLEWVSAISGTGSNTYYADSVKGRFTISRDNSKNTLYLQMNSLRAEDTAVYYCAKDRVTTVTYYFDYWGQGTLVTVSS
VL: not shown
B15: H1H27760P2-N297Q (antibody, V domains shown)
VH: EVQLVESGGGLVQPGRSLRLSCAASGFTFDAYAMHWVRQAPGKGLEWVSGISWNSGSIGYADSVKGRFTISRDNAKNSLYLQMNSLREEDTALYYCAKDKILELYYYGMDVWGQGTTVTVSS
VL: not shown
B16: H1H27761P2-N297Q (antibody, V domains shown)
VH: EVQLVESGGDLVQPGGSLRLSCSASGFTFNIYAMSWVRQAPGKGLEWVSGISGSGGSTYYADSVKGRFTISRDNSKNTLYFQMNSLRVEDTAVYYCAKKISSSSYYYYAMDVWGQGTTVTVSS
VL: not shown
B17: H1H27751P-N297Q (antibody, V domains shown)
VH: EVQLVESGGGLVQPGGSLRLSCAASGFTFSNYAMHWVRQAPGKGLEYVSAISSNGGSTYYADSVKGRITISRDNSKNTLYLQMGSLRAEDMAVYYCARGRPYYYYFGMDVWGQGTTVTVSS
VL: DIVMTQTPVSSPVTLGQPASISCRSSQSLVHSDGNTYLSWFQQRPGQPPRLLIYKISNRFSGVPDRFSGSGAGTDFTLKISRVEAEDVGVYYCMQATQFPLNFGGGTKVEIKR
B18: H1H27762P2-N297Q (antibody, V domains shown)
VH: QVQLVQSGAEVKKPGSSVKVSCKASGGTFSRYDISWVRQAPGQGLEWMGGIIPIFGTSNYAQKFQGRVTITTDESTSTVYMELSSLRSEDTAVYYCARGGRYGWFDPWGQGTLVTVSS
VL: not shown
B19: H2aM25685N (antibody, V domains shown)
VH: B13 VH with S9A, K12R, K13E, V20L, D55E, I59V, M70L, R87T, V117I
VL: not shown
B20: H2aM21228N (antibody, V domains shown)
VH: VQLVESGGGLVQPGGSLRLSCAASGFTFSDHYMDWVRQAPGKGLEWVGRTRNKANSHTTEYAASVSGRFTISRDDSKNSLYLQMNSLKTEDTAVYYCTRAGIIGTLFDYWGQGTLVTVSS
VL: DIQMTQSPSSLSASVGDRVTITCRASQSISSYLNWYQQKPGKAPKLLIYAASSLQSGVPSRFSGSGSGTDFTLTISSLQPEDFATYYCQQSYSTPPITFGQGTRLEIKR
B21: H2aM21229N (antibody, V domains shown)
VH: EVQLVESGGGLVKPGGSLRLSCAASGFTFSRYSMNWVRQAPGKGLEWVSSISSSSSYIYYGDTVKGRFTISRDNAKKSLYLQMNSLRAEDTAVYYCVRDRGQLVLYFDYWGQGTLVTVSS
VL: DIQMTQSPASLSTSIRDRVTITCRASLSISSFLNWFQQRPGKAPKLLIYVASNLQSGVPSRFSDSGSGTDFTLTISSLQPEDFATYYCQQNYSTPPITFGQGTRLEIK

Each binder was assayed against T1, human MSR1 with a C-terminal Myc tag … (assay: cell-based or functional assay).
For B1, the “IC50 of inhibition of Dil-Acetylated LDL uptake” value was greater than 100 nM.
B2 was tested, and the “IC50 of inhibition of Dil-Acetylated LDL uptake” value was 1.8 nM and the “IC50 of inhibition of Dil-Oxidized LDL uptake” value was 4.5 nM.
With B3 the “IC50 of inhibition of Dil-Acetylated LDL uptake” value was 1.3 nM and the “IC50 of inhibition of Dil-Oxidized LDL uptake” value was 6.1 nM.
In the case of B4, the “IC50 of inhibition of Dil-Acetylated LDL uptake” value is reported as greater than 170 nM and the “IC50 of inhibition of Dil-Oxidized LDL uptake” value is reported as greater than 16 nM.
With B5 the “IC50 of inhibition of Dil-Oxidized LDL uptake” value was 5.5 nM.
With B6 the “IC50 of inhibition of Dil-Oxidized LDL uptake” value was greater than 100 nM.
For B7, the “IC50 of inhibition of Dil-Acetylated LDL uptake” value was greater than 100 nM and the “IC50 of inhibition of Dil-Oxidized LDL uptake” value was greater than 100 nM.
B8 was tested, and the “IC50 of inhibition of Dil-Acetylated LDL uptake” value was 1.8 nM and the “IC50 of inhibition of Dil-Oxidized LDL uptake” value was 4.6 nM.
For B9, the “IC50 of inhibition of Dil-Acetylated LDL uptake” value was 3.5 nM and the “IC50 of inhibition of Dil-Oxidized LDL uptake” value was 3.7 nM.
In the case of B10, the “IC50 of inhibition of Dil-Acetylated LDL uptake” value is reported as greater than 20 nM and the “IC50 of inhibition of Dil-Oxidized LDL uptake” value is reported as 3.7 nM.
For B11, the “IC50 of inhibition of Dil-Acetylated LDL uptake” value was 3.7 nM and the “IC50 of inhibition of Dil-Oxidized LDL uptake” value was 3.1 nM.
With B12 the “IC50 of inhibition of Dil-Acetylated LDL uptake” value was greater than 100 nM.
B13 was tested, and the “% Inhibition of Dil-Acetylated LDL uptake” value was 79%, the “% Inhibition of Dil-Oxidized LDL uptake” value was 91% and the “IC50 of inhibition of Dil-Acetylated LDL uptake” value was 2.4 nM.
With B14 the “IC50 of inhibition of Dil-Acetylated LDL uptake” value was greater than 100 nM and the “IC50 of inhibition of Dil-Oxidized LDL uptake” value was greater than 10 nM.
In the case of B15, the “IC50 of inhibition of Dil-Acetylated LDL uptake” value is reported as 2.6 nM and the “IC50 of inhibition of Dil-Oxidized LDL uptake” value is reported as 4.9 nM.
With B16 the “IC50 of inhibition of Dil-Acetylated LDL uptake” value was greater than 100 nM and the “IC50 of inhibition of Dil-Oxidized LDL uptake” value was 9.5 nM.
B17 was tested, and the “IC50 of inhibition of Dil-Acetylated LDL uptake” value was 1.6 nM and the “IC50 of inhibition of Dil-Oxidized LDL uptake” value was 2.9 nM.
In the case of B18, the “IC50 of inhibition of Dil-Acetylated LDL uptake” value is reported as 2.9 nM and the “IC50 of inhibition of Dil-Oxidized LDL uptake” value is reported as 4 nM.
B19 was tested, and the “% Inhibition of Dil-Acetylated LDL uptake” value was 22%, the “% Inhibition of Dil-Oxidized LDL uptake” value was 43% and the “IC50 of inhibition of Dil-Acetylated LDL uptake” value was greater than 100 nM. The “IC50 of inhibition of Dil-Oxidized LDL uptake” value was greater than 100 nM.
With B20 the “IC50 of inhibition of Dil-Acetylated LDL uptake” value was greater than 100 nM and the “IC50 of inhibition of Dil-Oxidized LDL uptake” value was 3.1 nM.
For B21, the “IC50 of inhibition of Dil-Oxidized LDL uptake” value was greater than 100 nM.
